{"source": "paper PMC2852416", "about": "“Modular Insulators: Genome Wide Search for Composite CTCF/Thyroid Hormone Receptor Binding Sites”", "binders": {"B1": {"name": "F2 TRE (ER6) (dsDNA)", "DNA 1": "AGCTTTTAGTTACTTATTGACCCCAGCTGAGGTCAG", "DNA 2": "GATCCTGACCTCAGCTGGGGTCAATAAGTAACTAAA"}, "B2": {"name": "F2mut TRE (dsDNA)", "DNA 1": "AGCTTTTAGTTACTTATTGGGTCCAGCTGATCCCAG", "DNA 2": "GATCCTGGGATCAGCTGGACCCAATAAGTAACTAAA"}, "B3": {"name": "COMT DR4 (dsDNA)", "DNA 1": "ACCCGAGGGCACCAGAGGGCACGAGA", "DNA 2": "TCTCGTGCCCTCTGGTGCCCTCGGGT"}}, "key": {"GST-TR (TRbeta) [1]": {"molecular_target": "T1, GST-TR (TRbeta) (human, UniProt P10828 1-461)", "T1 sequence": "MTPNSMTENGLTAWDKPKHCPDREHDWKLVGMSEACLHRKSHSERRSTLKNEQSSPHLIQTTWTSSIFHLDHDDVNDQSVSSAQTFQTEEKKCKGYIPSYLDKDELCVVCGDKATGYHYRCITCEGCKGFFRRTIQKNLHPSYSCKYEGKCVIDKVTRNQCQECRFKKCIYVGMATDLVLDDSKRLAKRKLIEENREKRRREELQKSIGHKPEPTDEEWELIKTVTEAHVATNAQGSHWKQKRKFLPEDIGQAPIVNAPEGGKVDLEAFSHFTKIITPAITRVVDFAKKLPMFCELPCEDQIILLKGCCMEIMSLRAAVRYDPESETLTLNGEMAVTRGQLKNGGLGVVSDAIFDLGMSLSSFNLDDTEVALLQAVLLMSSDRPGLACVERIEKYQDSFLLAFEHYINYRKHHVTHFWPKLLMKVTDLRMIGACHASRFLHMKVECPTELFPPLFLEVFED", "assay": "competition; 50-fold excess against COMT DR4 probe; PBS pH 7.4, 5 mM MgCl2, 1 mM ZnCl2, 1 mM DTT, 0.1% NP-40, 10% glycerol, 200 ng/ul pdIdC, 25-100 ng/ul salmon sperm DNA, 20 min room temperature; 5% PAGE in TAE", "settings": "protein: recombinant; tags: GST; label: 32P; 5' overhangs 4 nt"}, "GST-TR (TRbeta) [2]": {"molecular_target": "T1, GST-TR (TRbeta)", "assay": "competition; mutated F2 against COMT DR4 probe; PBS pH 7.4, 5 mM MgCl2, 1 mM ZnCl2, 1 mM DTT, 0.1% NP-40, 10% glycerol, 200 ng/ul pdIdC, 25-100 ng/ul salmon sperm DNA, 20 min room temperature; 5% PAGE in TAE", "settings": "protein: recombinant; tags: GST; 5' overhangs 4 nt"}, "GST-TR (TRbeta) [3]": {"molecular_target": "T1, GST-TR (TRbeta)", "assay": "EMSA; PBS pH 7.4, 5 mM MgCl2, 1 mM ZnCl2, 1 mM DTT, 0.1% NP-40, 10% glycerol, 200 ng/ul pdIdC, 25-100 ng/ul salmon sperm DNA, 20 min room temperature; 5% PAGE in TAE", "settings": "protein: recombinant; tags: GST; label: 32P; blunt"}}}
{"binder": "B1", "values": [{"measurement": "binding result", "setting": "GST-TR (TRbeta) [1]", "value": "binds"}]}
{"binder": "B2", "values": [{"measurement": "binding result", "setting": "GST-TR (TRbeta) [2]", "value": "no binding"}]}
{"binder": "B3", "values": [{"measurement": "binding result", "setting": "GST-TR (TRbeta) [3]", "value": "binds"}]}
